The source of these data is patent publication US20090130192A1 (UNIVERSITY OF MANCHESTER, published 2009).

Some results are limits rather than exact numbers.

The target of test [1] is basic fibroblast growth factor (FGF-2). Description: cell-based or functional assay.
In test [2] the target is vascular endothelial growth factor (VEGF), isoform not stated. Put plainly: cell-based or functional assay.
The target of test [3] is basic fibroblast growth factor (FGF-2). Description: solid-phase binding assay, growth factor coated at 2 µg/ml, opticin titrated, detected with opticin-specific antibody; apparent Kd.
Another test addresses VEGF164. The test is described as above.
Test [4] has as its target T1, full-length recombinant opticin (bovine (stated in Example 6 only; not …, UniProt P58874 20-321).
T1 construct: mature; also called recombinant bovine opticin; class III SLRP opticin
T1 sequence (looked up): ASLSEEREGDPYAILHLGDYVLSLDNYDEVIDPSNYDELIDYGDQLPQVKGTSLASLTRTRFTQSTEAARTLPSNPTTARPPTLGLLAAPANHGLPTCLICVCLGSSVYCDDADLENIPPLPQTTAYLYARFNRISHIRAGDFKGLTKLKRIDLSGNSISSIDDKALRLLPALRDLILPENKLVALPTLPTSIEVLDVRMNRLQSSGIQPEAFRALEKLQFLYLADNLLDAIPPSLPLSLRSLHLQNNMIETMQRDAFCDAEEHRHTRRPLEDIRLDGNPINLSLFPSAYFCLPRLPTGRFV
Put plainly: solid-phase binding assay, receptor coated at 2 µg/ml, opticin titrated, detected with opticin-specific antibody; apparent Kd.

basic fibroblast growth factor (FGF-2), sequence (P09038 143-288): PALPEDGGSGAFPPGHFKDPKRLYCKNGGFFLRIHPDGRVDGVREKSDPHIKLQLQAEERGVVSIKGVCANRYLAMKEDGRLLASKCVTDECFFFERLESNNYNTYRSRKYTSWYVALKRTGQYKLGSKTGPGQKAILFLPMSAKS

B1: full-length recombinant opticin (protein, UniProt P58874 20-321, looked up)
chain: ASLSEEREGDPYAILHLGDYVLSLDNYDEVIDPSNYDELIDYGDQLPQVKGTSLASLTRTRFTQSTEAARTLPSNPTTARPPTLGLLAAPANHGLPTCLICVCLGSSVYCDDADLENIPPLPQTTAYLYARFNRISHIRAGDFKGLTKLKRIDLSGNSISSIDDKALRLLPALRDLILPENKLVALPTLPTSIEVLDVRMNRLQSSGIQPEAFRALEKLQFLYLADNLLDAIPPSLPLSLRSLHLQNNMIETMQRDAFCDAEEHRHTRRPLEDIRLDGNPINLSLFPSAYFCLPRLPTGRFV
Consider B1, for which, in test [1], the inhibition of FGF-2 induced BAEC proliferation is over 95%; the reduction of FGF-2-induced BAEC migration, 10 µg/ml opticin is 86%; the reduction of FGF-2-induced BAEC sprouting was found to be 73%. Further, in test [2], the inhibition of VEGF induced BAEC proliferation is over 90%; the reduction of VEGF-induced BAEC migration, 10 µg/ml opticin is 53%; the reduction of VEGF-induced BAEC sprouting is 70%. Also, in test [3], the Kd turned out to be 34 nM. In the test with VEGF164, the Kd worked out at 42 nM.

B2: VEGF-R1, soluble extracellular domain (receptor)
chain: SKLKDPELSLKGTQHIMQAGQTLHLQCRGEAAHKWSLPEMVSKESERLSITKSACGRNGKQFCSTLTLNTAQANHTGFYSCKYLAVPTSKKKETESAIYIFISDTGRPFVEMYSEIPEIIHMTEGRELVIPCRVTSPNITVTLKKFPLDTLIPDGKRIIWDSRKGFIISNATYKEIGLLTCEATVNGHLYKTNYLTHRQTNTIIDVQISTPRPVKLLRGHTLVLNCTATTPLNTRVQMTWSYPDEKNKRASVRRRIDQSNSHANIFYSVLTIDKMQNKDKGLYTCRVRSGPSFKSVNTSVHIYDKAFITVKHRKQQVLETVAGKRSYRLSMKVKAFPSPEVVWLKDGLPATEKSARYLTRGYSLIIKDVTEEDAGNYTILLSIKQSNVFKNLTATLIVNVKPQIYEKAVSSFPDPALYPLGSRQILTCTAYGIPQPTIKWFWHPCNHNHSEARCDFCSNNEESFILDADSNMGNRIESITQRMAIIEGKNKMASTLVVADSRISGIYICIASNKVGTVGRNISFYITDVPNGFHVNLEKMPTEGEDLKLSCTVNKFLYRDVTWILLRTVNNRTMHYSISKQKMAITKEHSITLNLTIMNVSLQDSGTYACRARNVYTGEEILQKKEITIRDQEAPYLLRNLSDHTVAISSSTTLDCHANGVPEPQITWFKNNHKIQQEPGIILGPGSSTLFIERVTEEDEGVYHCKATNQKGSVESSAYLTVQGTSDKSNLE
With B2, the Kd in test [4] was found to be 21 nM.
